Experimental data from patent US20240321457A1 (University of California, published 2024).

T1: UBE2N (human, UniProt P61088 1-152)
T1 construct: endogenous prey from cell lysate; also called UBC13
T1 sequence (looked up): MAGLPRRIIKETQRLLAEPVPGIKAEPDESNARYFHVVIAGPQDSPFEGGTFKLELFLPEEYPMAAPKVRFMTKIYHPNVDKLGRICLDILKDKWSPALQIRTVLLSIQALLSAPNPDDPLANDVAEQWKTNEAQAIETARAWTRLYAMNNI


Columns and labels:
[1] = target: T1, UBE2N; test: quantitative AP-MS, prey abundance normalised to bait, MDA-MB-231 cells
[2] = target: T1, UBE2N; test: AP-MS, PPI score from compPASS and SAINTexpress, MDA-MB-231 cells
Method: For AP-MS experiments, samples were resuspended in 15 μL of MS loading buffer (4% formic acid, 2% acetonitrile) and 2 μL were separated by a reversed-phase gradient over a nanoflow 75 μm ID×25 cm long picotip column packed with 1.9 μM C18 particles (Dr. Maisch). Peptides were directly injected over the course of a 75 min acquisition into a Q-Exactive Plus mass spectrometer (Thermo), or over the course of a 90 min acquisition into a Orbitrap Elite mass spectrometer. […] Peptides and proteins were filtered to 1% false discovery rate in MaxQuant, and identified proteins were then subjected to protein-protein interaction scoring.
All PPI scoring was performed separately for each cell line. For SAINTexpress, control samples in which bait protein was not induced by addition of doxycycline were used. For CompPASS, a stats table representing all WT baits was used. After scoring, the CompPASS WD and Z-score were normalized within a given bait for each cell line. The total list of candidate PPIs was filtered to those that met the following criteria: SAINTexpress BFDR=<0.05, WD percentile by bait>=0.95, and Z-score percentile by bait≤=0.95. PPIs passing all 3 of these criteria were considered to be high-confidence PPIs. To enable visualization and analysis of PPIs by confidence score among these 3 criteria, a PPI score was calculated: [(WD percentile by bait+Z-score percentile by bait)/2)+(1−BFDR)]/2.

[3] = target: T2, BRCA1 S1655F (human, UniProt P38398 1-1863); test: AP-MS, 3xFLAG bait, MDA-MB-231 cells
T2 construct: 3xFLAG-tagged bait; also called BRCT domain mutant S1655F; 51655F

[4] = target: T3, BRCA1 5382insC (human, UniProt P38398 1-1755, limits assumed); test: AP-MS, 3xFLAG bait, MDA-MB-231 cells
T3 construct: 3xFLAG-tagged bait; also called 5832insC

[5] = target: T4, BRCA1 M1775R (human, UniProt P38398 1-1863); test: AP-MS, 3xFLAG bait, MDA-MB-231 cells
T4 construct: 3xFLAG-tagged bait; also called BRCT domain mutant M1775R

fold reduction of associated prey compared to WT [1] [fold]	PPI score [2]	binding result [3]	binding result [4]	binding result [5]	Binder
6	< 0.6	–	–	–	BRCA1 I26A (enzyme, human, UniProt P38398 1-1863, looked up, 3xFLAG-tagged bait; printed I16A in the embodiments; also called RING domain mutant I26A) MDLSALRVEEVQNVINAMQKILECPACLELIKEPVSTKCDHIFCKFCMLKLLNQKKGPSQCPLCKNDITKRSLQESTRFSQLVEELLKIICAFQLDTGLEYANSYNFAKKENNSPEHLKDEVSIIQSMGYRNRAKRLLQSEPENPSLQETSLSVQLSNLGTVRTLRTKQRIQPQKTSVYIELGSDSSEDTVNKATYCSVGDQELLQITPQGTRDEISLDSAKKAACEFSETDVTNTEHHQPSNNDLNTTEKRAAERHPEKYQGSSVSNLHVEPCGTNTHASSLQHENSSLLLTKDRMNVEKAEFCNKSKQPGLARSQHNRWAGSKETCNDRRTPSTEKKVDLNADPLCERKEWNKQKLPCSENPRDTEDVPWITLNSSIQKVNEWFSRSDELLGSDDSHDGESESNAKVADVLDVLNEVDEYSGSSEKIDLLASDPHEALICKSERVHSKSVESNIEDKIFGKTYRKKASLPNLSHVTENLIIGAFVTEPQIIQERPLTNKLKRKRRPTSGLHPEDFIKKADLAVQKTPEMINQGTNQTEQNGQVMNITNSGHENKTKGDSIQNEKNPNPIESLEKESAFKTKAEPISSSISNMELELNIHNSKAPKKNRLRRKSSTRHIHALELVVSRNLSPPNCTELQIDSCSSSEEIKKKKYNQMPVRHSRNLQLMEGKEPATGAKKSNKPNEQTSKRHDSDTFPELKLTNAPGSFTKCSNTSELKEFVNPSLPREEKEEKLETVKVSNNAEDPKDLMLSGERVLQTERSVESSSISLVPGTDYGTQESISLLEVSTLGKAKTEPNKCVSQCAAFENPKGLIHGCSKDNRNDTEGFKYPLGHEVNHSRETSIEMEESELDAQYLQNTFKVSKRQSFAPFSNPGNAEEECATFSAHSGSLKKQSPKVTFECEQKEENQGKNESNIKPVQTVNITAGFPVVGQKDKPVDNAKCSIKGGSRFCLSSQFRGNETGLITPNKHGLLQNPYRIPPLFPIKSFVKTKCKKNLLEENFEEHSMSPEREMGNENIPSTVSTISRNNIRENVFKEASSSNINEVGSSTNEVGSSINEIGSSDENIQAELGRNRGPKLNAMLRLGVLQPEVYKQSLPGSNCKHPEIKKQEYEEVVQTVNTDFSPYLISDNLEQPMGSSHASQVCSETPDDLLDDGEIKEDTSFAENDIKESSAVFSKSVQKGELSRSPSPFTHTHLAQGYRRGAKKLESSEENLSSEDEELPCFQHLLFGKVNNIPSQSTRHSTVATECLSKNTEENLLSLKNSLNDCSNQVILAKASQEHHLSEETKCSASLFSSQCSELEDLTANTNTQDPFLIGSSKQMRHQSESQGVGLSDKELVSDDEERGTGLEENNQEEQSMDSNLGEAASGCESETSVSEDCSGLSSQSDILTTQQRDTMQHNLIKLQQEMAELEAVLEQHGSQPSNSYPSIISDSSALEDLRNPEQSTSEKAVLTSQKSSEYPISQNPEGLSADKFEVSADSSTSKNKEPGVERSSPSKCPSLDDRWYMHSCSGSLQNRNYPSQEELIKVVDVEEQQLEESGPHDLTETSYLPRQDLEGTPYLESGISLFSDDPESDPSEDRAPESARVGNIPSSTSALKVPQLKVAESAQSPAAAHTTDTAGYNAMEESVSREKPELTASTERVNKRMSMVVSGLTPEEFMLVYKFARKHHITLTNLITEETTHVVMKTDAEFVCERTLKYFLGIAGGKWVVSYFWVTQSIKERKMLNEHDFEVRGDVVNGRNHQGPKRARESQDRKIFRGLEICCYGPFTNMPTDQLEWMVQLCGASVVKELSSFTLGTGVHPIVVVQPDAWTEDNGFHAIGQMCEAPVVTREWVLDSVALYQCQELDTYLIPQIPHSHY
–	–	no binding	no binding	no binding	UIMC1 (other, human, UniProt Q96RL1 1-719, looked up, endogenous prey from cell lysate) MPRRKKKVKEVSESRNLEKKDVETTSSVSVKRKRRLEDAFIVISDSDGEEPKEENGLQKTKTKQSNRAKCLAKRKIAQMTEEEQFALALKMSEQEAREVNSQEEEEEELLRKAIAESLNSCRPSDASATRSRPLATGPSSQSHQEKTTDSGLTEGIWQLVPPSLFKGSHISQGNEAEEREEPWDHTEKTEEEPVSGSSGSWDQSSQPVFENVNVKSFDRCTGHSAEHTQCGKPQESTGRGSAFLKAVQGSGDTSRHCLPTLADAKGLQDTGGTVNYFWGIPFCPDGVDPNQYTKVILCQLEVYQKSLKMAQRQLLNKKGFGEPVLPRPPSLIQNECGQGEQASEKNECISEDMGDEDKEERQESRASDWHSKTKDFQESSIKSLKEKLLLEEEPTTSHGQSSQGIVEETSEEGNSVPASQSVAALTSKRSLVLMPESSAEEITVCPETQLSSSETFDLEREVSPGSRDILDGVRIIMADKEVGNKEDAEKEVAISTFSSSNQVSCPLCDQCFPPTKIERHAMYCNGLMEEDTVLTRRQKEAKTKSDSGTAAQTSLDIDKNEKCYLCKSLVPFREYQCHVDSCLQLAKADQGDGPEGSGRACSTVEGKWQQRLKNPKEKGHSEGRLLSFLEQSEHKTSDADIKSSETGAFRVPSPGMEEAGCSREMQSSFTRRDLNESPVKSFVSISEATDCLVDFKKQVTVQPGSRTRTKAGRGRRRKF
